In general, pKd refers to the negative decadic logarithm of the Kd, by convention in mol/L. As usually defined, the koff is a measure of how fast the partners let go of each other. The low end stands for a long-lived complex, the high end for a short-lived complex. A word on the kon: it is a measure of how fast the partners come together. Read a low kon as slower complex formation.

pKd: −log10 of the molar value.

In one assay the test system is CD4+ T cells. As to the kind of experiment: Staining with peptide-loaded DR1001 tetramers (tetramer guided epitope mapping). In kind it is cell-based, human. As to conditions: DR1001 tetramers; severe HA inhibitor subject 56A; day 18. As to the method: (§1) a. Added 1.5 μl PE-labeled tetramers (final concentration 10 μg/ml. b. Mixed by shaking the rack containing the FACS tubes. c. Incubated the cells with tetramer for 1 hr in the 37 C 5% CO2 incubator.
(§2) a. Incubated tubes in the refrigerator for >5 min. b. Made an antibody cocktail consisting of 3.75 μl anti-CD4-APC, 3.75 μl anti-CD3-PerCP, 3.75 μl anti-CD25-FITC per sample. 3.75 ul×50=187.5 ul. c. Added 3.75 μl control antibodies to 75 μl control cells (1 —unstained; 2—anti-CD4-FITC; 3—anti-CD4-PE; 4—anti-CD3-PerCP; 5—anti-CD4-APC). d. Added 11.25 μl antibody cocktail to each sample. e. Incubated all samples at 4 C (put in the refrigerator) for 20 min in the dark.
(§3) a. Added 2 ml cold FACS wash buffer to each tube. b. Centrifuged at 1200 rpm, 10 min, 4 C, low brake in the Beckman Coulter Allegra 6KR centrifuge. c. Decanted the supernatant. d. Resuspended in 200 μl FACS wash buffer. e. Stored tubes in a covered ice container for FACS analysis.
(§4) a. Added 1.5 μl PE-labeled tetramers (final concentration 10 μg/ml). b. Mixed by shaking the rack containing the FACS tubes. c. Incubated the cells with tetramer for 1 hr in the 37 C 5% CO2 incubator.
(§5) a. Incubated tubes in the refrigerator for >5 min. b. Made an antibody cocktail consisting of 3.75 μl anti-CD4-APC, 3.75 μl anti-CD3-PerCP, 3.75 μl anti-CD25-FITC per sample. 3.75 ul×55=206.25 ul (For the CD25-FITC Ab, I opened a new vial (Lot #E016414)—taking 100 ul from this lot.) c. Added 3.75 μl control antibodies to 75 μl control cells (1 —unstained; 2—anti-CD4-FITC; 3—anti-CD4-PE; 4—anti-CD3-PerCP; 5—anti-CD4-APC). d. Added 11.25 μl antibody cocktail to each sample. e. Incubated all samples at 4 C (put in the refrigerator) for 20 min in the dark.
(§6) a. Added 2 ml cold FACS wash buffer to each tube. b. Centrifuged at 1200 rpm, 10 min, 4 C, low brake in the Beckman Coulter Allegra 6KR centrifuge. c. Decanted the supernatant. d. Resuspended in 250 μl FACS wash buffer. e. Stored tubes in a covered ice container for FACS analysis.
On to DPRCLTRYYSSFVNMERDLA [Mutant A2-20], for which the “Positive (individual peptide loaded tetramer staining)” value (shortened to “Positive”) is reported as “no”.
Consider FPILPGEIFKYKWTVTVEDG [Mutant A2-17], for which the “Positive” value is on record as “no”.
Still for that read-out and setting: the value for FSWIKVDLLAPMIIHGIKTQ [Mutant C1-11] was “no”.
In the case of KEFLISSSQDGHQWTLFFQN [Mutant C2-12], the “Positive” value is given as “no”.
Same read-out and setting: the value for KVFQGNQDSFTPVVNSLDPP [Mutant C2-15] was “no”; that for LFFQNGKVKVFQGNQDSFTP [Mutant C2-14] was “no”.
As to SLLTSMYVKEFLISSSQDGH [Mutant C2-11], the “Positive” value is “no”.
On the same count and under the same terms, in the case of SQDGHQWTLFFQNGKVKVFQ [Mutant C2-13] it was “no”.

The next assay deals with CD4+ T cells. Put plainly: Staining with peptide-loaded DR0101 tetramers (tetramer guided epitope mapping). As to conditions: DR0101 tetramers; severe HA inhibitor subject 56A; day 18. In kind it is cell-based, human.
Excerpt: T-cell clones were obtained from blood samples from both brothers by staining CD4+ cells with fluorescent DR0101 tetramers that were loaded with peptide FVIII2194-2213, followed by single-cell sorting and expansion. Clones were expanded by stimulation with irradiated peripheral blood mononuclear cells (PBMCs) from an HLA-mismatched individual plus phytohemagglutinin (Remel, Lenexa, Kans.) in the presence of human IL-2 (Hemagen Diagnostics, Inc., Columbia, Md.). Clonality was confirmed by tetramer staining, multiplex PCR and sequencing of the VDJ region in the PCR products.
as §1, §2, §3, §4, §5, §6
As to DLNSCSMPLGMESKAISDAQ [Mutant C2-1], the “Positive” value was “no”.
DPRCLTRYYSSFVNMERDLA [Mutant A2-20]: the “Positive” value was “no”.
Take FPILPGEIFKYKWTVTVEDG [Mutant A2-17]: the “Positive” value is “no”.
As for FSWIKVDLLAPMIIHGIKTQ [Mutant C1-11], the “Positive” value is “no”.
Consider LGMESKAISDAQITASSYFT [Mutant C2-2], for which the “Positive” value is “no”.
For the substance SDAQITASSYFTNMFATWSP [Mutant C2-3B], the “Positive” value was “weak”.

The target in another assay is BO2C11 Fab fragment. As to the kind of experiment: SPR, BO2C11 Fab on chip, 25 C, 1:1 model.
Details: not given
For orientation: Surface plasmon resonance follows binding to a sensor surface in real time, without labels.
For the substance “FVIII C2 domain protein A2201P (from UniProt P00451 2189-2351)”, the pKd was 10.72, the koff was found to be 0.00016 s⁻¹ and the kon turned out to be 8.4e+06 M⁻¹ s⁻¹.
“FVIII C2 domain protein E2181A (from UniProt P00451 2189-2351)” showed a pKd of 11.07, a koff of 0.00019 s⁻¹ and a kon of 2.2e+07 M⁻¹ s⁻¹.
As to “FVIII C2 domain protein E2327A (from UniProt P00451 2189-2351)”, the pKd was 11.59, the koff was 5.4e-05 s⁻¹ and the kon came to 2.1e+07 M⁻¹ s⁻¹.
“FVIII C2 domain protein H2211A (from UniProt P00451 2189-2351)” had a pKd of 11.27, a koff of 3.8e-05 s⁻¹ and a kon of 7.1e+06 M⁻¹ s⁻¹.
As to “FVIII C2 domain protein H2269A (from UniProt P00451 2189-2351)”, the pKd is 11.11, the koff was 0.00017 s⁻¹ and the kon amounted to 2.2e+07 M⁻¹ s⁻¹.
Regarding “FVIII C2 domain protein H2309A (from UniProt P00451 2189-2351)”, the pKd was 11.72, the koff was 2.9e-05 s⁻¹ and the kon turned out to be 1.5e+07 M⁻¹ s⁻¹.
In the same order, the values of “FVIII C2 domain protein H2315A (from UniProt P00451 2189-2351)” are 11.31, 7.3e-05 s⁻¹ and 1.5e+07 M⁻¹ s⁻¹.
The substance “FVIII C2 domain protein K2207A (from UniProt P00451 2189-2351)” showed a pKd of 10.89, a koff of 5.9e-05 s⁻¹ and a kon of 4.6e+06 M⁻¹ s⁻¹.
In the same order, the values of “FVIII C2 domain protein K2227A (from UniProt P00451 2189-2351)” are 11.47, 6.4e-05 s⁻¹ and 1.9e+07 M⁻¹ s⁻¹.
“FVIII C2 domain protein K2227Q (from UniProt P00451 2189-2351)” showed a pKd of 11.54, a koff of 2e-05 s⁻¹ and a kon of 6.8e+06 M⁻¹ s⁻¹.
“FVIII C2 domain protein K2249A (from UniProt P00451 2189-2351)” showed a pKd of 11.21, a koff of 3.7e-05 s⁻¹ and a kon of 6.1e+06 M⁻¹ s⁻¹.
For “FVIII C2 domain protein K2279A (from UniProt P00451 2189-2351)”, in that order: 10.59, 0.00019 s⁻¹ and 7.2e+06 M⁻¹ s⁻¹.
For “FVIII C2 domain protein L2212A (from UniProt P00451 2189-2351)”, the pKd is 11.72, the koff is 4.4e-05 s⁻¹ and the kon amounted to 2.3e+07 M⁻¹ s⁻¹.
“FVIII C2 domain protein L2273A (from UniProt P00451 2189-2351)”: the pKd was 10.82, the koff worked out at 0.00017 s⁻¹ and the kon was 1.1e+07 M⁻¹ s⁻¹.
The substance “FVIII C2 domain protein L2302A (from UniProt P00451 2189-2351)” had a pKd of 11.62, a koff of 5.7e-05 s⁻¹ and a kon of 2.4e+07 M⁻¹ s⁻¹.
For “FVIII C2 domain protein N2224A (from UniProt P00451 2189-2351)”, in that order: 11.57, 8.6e-05 s⁻¹ and 3.2e+07 M⁻¹ s⁻¹.
In the same order, the values of “FVIII C2 domain protein N2225A (from UniProt P00451 2189-2351)” are 11.62, 3.9e-05 s⁻¹ and 1.6e+07 M⁻¹ s⁻¹.
For “FVIII C2 domain protein N2277A (from UniProt P00451 2189-2351)”, the pKd is 11.30, the koff turned out to be 6e-05 s⁻¹ and the kon is 1.2e+07 M⁻¹ s⁻¹.
The substance “FVIII C2 domain protein P2300L (from UniProt P00451 2189-2351)” gave a pKd of 11.28, a koff of 9.5e-05 s⁻¹ and a kon of 1.8e+07 M⁻¹ s⁻¹.
As to “FVIII C2 domain protein Q2213A (from UniProt P00451 2189-2351)”, the pKd was 11.36, the koff was determined as 6.1e-05 s⁻¹ and the kon stood at 1.4e+07 M⁻¹ s⁻¹.
On to “FVIII C2 domain protein Q2222A (from UniProt P00451 2189-2351)”, for which the pKd was 11.28, the koff was 3.9e-05 s⁻¹ and the kon was 7.4e+06 M⁻¹ s⁻¹.
“FVIII C2 domain protein Q2270A (from UniProt P00451 2189-2351)” had a pKd of 11.82, a koff of 0.00018 s⁻¹ and a kon of 1.2e+08 M⁻¹ s⁻¹.
For the substance “FVIII C2 domain protein Q2311A (from UniProt P00451 2189-2351)”, the pKd is 11.52, the koff came to 6.8e-05 s⁻¹ and the kon is 2.3e+07 M⁻¹ s⁻¹.
Consider “FVIII C2 domain protein Q2316A (from UniProt P00451 2189-2351)”, for which the pKd was 10.60, the koff was determined as 0.00032 s⁻¹ and the kon stood at 1.3e+07 M⁻¹ s⁻¹.
Take “FVIII C2 domain protein R2304H (from UniProt P00451 2189-2351)”: the pKd was 11.04, the koff came out at 9.2e-05 s⁻¹ and the kon is 1e+07 M⁻¹ s⁻¹.
Substance “FVIII C2 domain protein R2307Q (from UniProt P00451 2189-2351)” showed a pKd of 11.33, a koff of 9e-05 s⁻¹ and a kon of 1.9e+07 M⁻¹ s⁻¹.
As to “FVIII C2 domain protein S2173I (from UniProt P00451 2189-2351)”, the pKd is 11.14, the koff is 0.00011 s⁻¹ and the kon is 1.5e+07 M⁻¹ s⁻¹.
In the case of “FVIII C2 domain protein T2202A (from UniProt P00451 2189-2351)”, the pKd was 11.24, the koff is 3.5e-05 s⁻¹ and the kon came out at 6e+06 M⁻¹ s⁻¹.
“FVIII C2 domain protein T2253A (from UniProt P00451 2189-2351)” gave a pKd of 11.01, a koff of 5.2e-05 s⁻¹ and a kon of 5.3e+06 M⁻¹ s⁻¹.
For “FVIII C2 domain protein T2272A (from UniProt P00451 2189-2351)”, in that order: 11.38, 5.4e-05 s⁻¹ and 1.3e+07 M⁻¹ s⁻¹.
“FVIII C2 domain protein V2223M (from UniProt P00451 2189-2351)”: the pKd is 11.20, the koff worked out at 3.6e-05 s⁻¹ and the association rate constant (kon) came out at 5.7e+06 M⁻¹ s⁻¹.
Substance “FVIII C2 domain protein W2313Y (from UniProt P00451 2189-2351)” showed a pKd of 10.96, a koff of 8.7e-05 s⁻¹ and a kon of 8.2e+06 M⁻¹ s⁻¹.

The values are drawn from US20130116182A1, “Factor VIII B Cell Epitope Variants Having Reduced Immunogenicity” (priority 2009, published 2013).
